This experiment has as its target PD-1 on human CD4+ T cells (human, UniProt Q15116 25-288). As to the kind of experiment: cell-based or functional assay.

Numbering of substitutions follows the chain as printed.

PD-1 on human CD4+ T cells, sequence (Q15116 25-288 limits assumed): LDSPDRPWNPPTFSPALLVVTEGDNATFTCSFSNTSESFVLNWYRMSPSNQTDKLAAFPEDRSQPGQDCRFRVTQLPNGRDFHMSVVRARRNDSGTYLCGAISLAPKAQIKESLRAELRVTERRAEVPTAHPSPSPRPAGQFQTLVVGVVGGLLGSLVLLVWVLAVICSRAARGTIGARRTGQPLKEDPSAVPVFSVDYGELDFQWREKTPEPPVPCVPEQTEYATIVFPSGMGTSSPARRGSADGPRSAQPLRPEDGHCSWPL

B1: 4G9-2 (antibody, human IgG1, kappa, V domains shown)
VH: QVQLVQSGAEVKKPGASVKVSCKASGYTFTTYGINWVRQATGQGLEWMGWINTYSGVPGYAQKFQGRVTMTLNTSISTAYMELSSLRSEDTAVYYCARGSGGFAYWGQGTLVTVSS
VL: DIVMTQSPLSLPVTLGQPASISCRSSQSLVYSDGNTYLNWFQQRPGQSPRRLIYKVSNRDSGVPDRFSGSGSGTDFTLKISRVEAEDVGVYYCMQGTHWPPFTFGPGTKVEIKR
Turning to B1, the “IFN-γ levels in the supernatants of human CD4 T cells (ELISA), 4G9-2 at 25 µg/mL for 72 hours” value is 3 fold.

B2: 4G9-12 (antibody, V domains shown)
VH: B1 VH with N73D
VL: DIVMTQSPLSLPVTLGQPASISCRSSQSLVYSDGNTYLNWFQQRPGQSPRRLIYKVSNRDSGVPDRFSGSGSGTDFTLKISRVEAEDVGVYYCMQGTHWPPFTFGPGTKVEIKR
Take B2: the “ITK/SHP2 ratio (normalized to levels of PD-1), Protein A immunoprecipitation and Western blot” value came to 3 fold.

The record behind these values is patent US20250136692A1 (GEORGIAMUNE, published 2025).
